Measured values: paper PMC4700666, “The structure of a prophenoloxidase (PPO) from Anopheles gambiae provides new insights into the mechanism of PPO activation” (BMC Biology, 2016)

Target: the molecule itself
Assay: SEC; size exclusion chromatography of purified AgPPO8 against standard proteins; eluted at a similar retention volume as bovine γ-globulin

B1: Anopheles gambiae prophenoloxidase 8 (AgPPO8) (enzyme, UniProt Q8MZM3 1-700, looked up)
chain: MATLTQKFHGLLQHPLEPLFLPKNDGTLFYDLPERFLTSRYSPIGQNLANRFGPNSPASSQVSNDTGVPPTVVTIKDLDELPDLTFATWIKRRDSFSLFNPEHRKAAGKLTKLFLDQPNADRLVDVAAYARDRLNAPLFQYALSVALLHRPDTKSVSVPSLLHLFPDQFIDPAAQVRMMEEGSIVLDENRMPIPIPMNYTATDAEPEQRMAFFREDIGVNLHHWHWHLVYPASGPPDVVRKDRRGELFYYMHQQLLARYQIDRYAQGLGRIEPLANLREPVREAYYPKLLRTSNNRTFCPRYPGMTISDVARSADRLEVRIADIESWLPRVLEAIDAGFAVSDDGVRVPLDETRGIDVLGNILERSAISINRNLYGDVHNMGHVLLAFIHDPRGTYLESSGVMGGVATAMRDPIFYRWHKFIDNIFLRNKARLAPYTMAELSNSNVTLEALETQLDRAGGAVNSFVTFWQRSQVDLRAGIDFSAAGSAFVSFTHLQCAPFVYRLRINSTARSNRQDTVRIFLLPRQNEQGRPLSFEDRRLLAIELDSFRVNLRPGMNNIVRQSSNSSVTIPFERTFGNVEQANAGNAQSRFCGCGWPAHMLLPKGNANGVEFDLFAMVSRFEDDNANVNYDENAGCDDSYAFCGLRDRVYPSRRAMGFPFDRRASNGVRSVADFVAPYKNMRLATVTLRFMNTIIDRPTN
notes: Prophenoloxidase 8 (PPO8) of Anopheles gambiae, zymogen; cDNA amplified from a cDNA pool of second instar larvae; each subunit in the crystal comprises 700 residues (numbered 1-700; pro-region 17-81, domain I 1-16 and 82-196, domain II 197-435, domain III 436-697); Expressed as a SUMO fusion with an N-terminal 6xHis tag; also called A. gambiae PPO8; source: E. coli BL21 gold (DE3), purified …
stoichiometry N: 2
